# Reference: the DeepSol protein solubility set
# Assay: soluble on expression in E. coli; label from the status in PepcDB or PDB records
row,Sequence,soluble on expression in E. coli
1,PSEIFYQAKVREQKERHARYHDTTYNLEPDIKSTPGGLRDIHTLSWVARRHFGATSLYEMSRFGFLTDAEYRELVECQDFLWRVRFALHIELKRYDNRLTFAHQVQVARHLGYFGEGNRGIEMMMKEFFRTLRRVAELNKMLLKIFDKAILNNGEEAEAVIIDDDFQRRGNMIEARKPALFQARPETILDMFLHMASDSTIESVAPATMRQLRTARRRLN,not soluble
2,PSKKNGRSGPQPHKRWVFTLNNPSEDERKKIRDLPISLFDYFIVGEEGNEEGRTPHLQGFANFVKKQTFNKVKWYLGARCHIEKAKGTDQQNKEYCSKEGNLLMECGAPRSQGQR,soluble
3,PTDILEHVLLPVATEDDALATVTALEPYEPEQVTALHVVEKGEGVPDKTPVAQSEEVAAESYAAVRTVFPDADDHTAYSRNVVEAIFHAADEVGASAIAYRSRGGGRLMQFLSGDLSLKLVTNAAIPVIALPRADS,not soluble
4,PVDFNGYWKMLSNENFEEYLRALDVNVALRKIANLLKPDKEIVQDGDHMIIRTLSTFRNYIMDFQVGKEFEEDLTGIDDRKCMTTVSWDGDKLQCVQKGEKEGRGWTQWIEGDELHLEMRAEGVTCKQVFKKVH,soluble
5,PVYMVYVSQDRLTPSAKHAVAKAITDAHRGLTGTQHFLAQVNFNEQPAGNVFLGGVQQGGDTIFVHGLHREGRSADLKGQLAQRIVDDVSVAAEIDRKHIWVYFGEMPAQQMVEYGRFLPQPGHEGEWFDNLSSDERAFMETNVDVSRT,soluble
6,QADTAMIVQISADRKEINLVSIPRDSLVDVPQCETSKGTIPAQYNVMFNSIFAGAYKTGGDLSSAASCTLNAVNSLTGLNIQNFIVVDFAGLVKMIDSVGGVDLCIPQNVNDPYTGLNLDKGMHHLDGVAATQYARIRHGIGDGSDTSRTTRQQYLIKQLMSEALS,not soluble
7,QDPDGLLGDKKDVGITCALIPADHDGVEIGERHDPLGSAFMNGPTRGEDVFIPMDWLIGGSDYAGKGWRMLVECLSAGRGISLPALGTAIGHLTTRTTGAYAYVRKQFGMSIGKFEGVAEAMGRIGGLTYLLEATRTLTTTSLDMKEKPGIVTAIAKYHMTEIARTILNDSFDIHAGRAIQDGPMNYLAKHYLGIPVAITVEGANILTRNLMIFGQGATRCHPYVLKEMEAAANPDSEQGAKEFDSLLFKH,not soluble
8,QERFVHVHKMITTGTIEEKIDVMLESKQTLNDQIIQSENWITELSTQELEEL,soluble
9,QGLVPQGQTQVLQGGNKVPVVNIADPNSGGVSHNKFQQFNVANPGVVFNNGLTDGVSRIGGALTKNPNLTRQASAILAEVTDTSPSRLAGTLEVYGKGADLIIANPNGISVNGLSTLNASNLTLTTGRPSVNGGRIGLDVQQGTVTIERGGVNATGLGYFDVVARLVKLQGAVSSKQGKPLADIAVVAGANRYDHATRRATPIAAGARGAAAGAYAIDGTAAGAMYGKHITLVSSDSGLGVRQLGSLSSPSAITVSSQGEIALGDATVQRGPLSLKGAGVVSAGKLASGGGAVNVAGGGAV,soluble
10,QGMIMTSDIKLLDYLRVRRSTPALQLSEPGPSKGEIEEILRLAVRVPDHGKLAPWRFVVYRGEERVRLSEAALRIALEKNPDLDLQQQEAERTRFTRAPVVIAVISTAKPHFKIPEWEQVMSAGAVCLNVIFAANASGFAANWLTEWLAFDPAFLAEIGVSAEEKVAGYIHIGSTTFPPVERPRPELADVVTWVGDV,soluble
11,QGRYTTDDGYIFNASDIIEDTGDAYIVPHGDHYHYIPKNELSASELAAAEAFLSG,soluble
12,QGTRVTLKVDKEYQQALSRGHSAGHLAYLALNKVLAASYWRKDADRKDPHGNYDFNSYAQEASFVTPDKCLDTYRLGKTLRKRGLNSAEMLSDLEKIEGQVNAQLKFWLERDAAIIMDCHGDNLTDSRYWKCDLGEGELAVIPCGGTHAEHLSDFGSIHVKLVEMDSQTIEMHTDVIACFSN,not soluble
13,QILSIDPLDISQNLAAVNKSLSDALQHLAQSDTYLSAI,soluble
14,QITGIETGFYDFDKLITGLHEDQLIVLAARPAMGKTALALNIAQNVATKSNKAVAVFSLEMGAESLVERMLSAEGTIINHHIRTGNLTVNEWQRLIYAQGQLAEAPIFIDDTAGVKITDIRARARRLSQETDGLGLIVIDYLQLIQGSRSDNRQQEVSEISRQLKIIAKELKVPVIALSQLSRGVEQRNDKRPIMSDL,not soluble
15,QKKTVQVYRIIAKNTIEERVCQVQAEKQELVSKTLVEDVNFFESLTNEELLRLFE,not soluble
16,QKVTSLTACLVDQSLRLDCRHENTSSSPIQYEFSLTRETKKHVLFGTVGVPEHTYRSRTNFTSKYNMKVLYLSAFTSKDEGTYTCALHHSGHSPPISSQNVTVLRDKLVKCEGISLLAQNTSWLLLLLLSLSLLQATDFMSL,not soluble

row,Sequence,soluble on expression in E. coli
1,QLPPGTFIPYGLSLESATGVNFLTPTSFWKQTRMHASKRKLLRNMELLIIDEVSMLRADTLDLIDFVLRRVRSNPRSFGGVQVLFIGDLMQLPPVVKPHEWE,not soluble
2,QMFWPLQPVQLSLANVFLALANYLDAKAKLFHPVTNLAPQPMRIEAARLNAATVTALNACKATLLTRSKRGHVDGPSDRFLNIYFIAQDIHERVSSSHYRYQDLATEFERSDVLFRFKYLLETQAQACRDIAQAIQLGNEYTHTDESILALAELQNSLAYLEEQQQGHWKRLLMQLTYLFNNLATVEKQLNNINNPDAERLEEDTLADTNPHTLKAMWQRISANLHKDSMLFRH,not soluble
3,QPEDLAYVIFTSGSTGQPKGVAIEHRAARTTIDDINQRFEITDTDVVLGLSALSFDLSVWDIFGGLGAGATVVLPEEDRLRDPSYWLDLCDRHEITVWNSAPPLLEMLVDYAEIDPEAAAHALRNLRMVMLSGDWIPVTLPRRLKELAPNATVMSLGGATEASIWSICHRTSDADEHGPS,not soluble
4,QQVRQSPQSLTVWEGETAILNCSYEDSTFNYFPWYQQFPGEGPALLISIRSVSDKKEDGRFTIFFNKREKKLSLHITDSQPGDSATYFCAARYQGGRALIFGTGTTVSVSP,soluble
5,QRKGVLIILDGLGDRPIKELGGKTPLEYANTPTMDYLAKIGILGQQDPIKPGQPAGSDTAHLSIFGYDPYKSYRGRGYFEALGVGLELDEDDLAFRVNFATLENGVITDRRAGRISTEEAHELAKAIQENVDIPVDFIFKGATGHRAVLVLKGMAEGYKVGENDPHEAGKPPHPFTWEDEASKKVAEILEEFVKKAHEVLDKHPINEKRRKEGKPVANYLLIRGAGTYPNIPMKFTEQWKVKAAAVVAVALVKGVAKAIGFDVYTPKGATGEYNTDEMAKARKAVELLKDYDFVFIHFKPTDAAGHDNNPKLKAELIERADRMIKYIVDHVDLEDVVIAITGDHSTPCEVMNHSGDPVPLLIAGGGVRADYTEKFGEREAMRGGLGRIRGHDIVPIMMDLMN,not soluble
6,QTVVTGKVIDSETSEPLIGVSVSTGQGASLRGVTTDMDGGFRFEVPAKSVLTFRCVGYATVTRSIGRGSQEDLGTILLDPQAIGLDEIQVIASVVPKDRMTPVPVSNIRVADIQAASLNVEFPELVKSTPSTYTTKGSGGFGDGRTNVRGFDTYNFGVLINGVPVNGMEDGKVYWSNWSGLMNQASTIQIQRGLGASKLGISSVGGTMNIITKTTDANTGGSAYVGMGNDGLHKESFSISTGMND,not soluble
7,QVQLQQPGSVLVRPGASVKLSCKASGFTFTSSWMHWAKQRPGQGLEWIGEIHPNSGNTHYNEKFKGKATLTVDTSSSTAYVDLSSLTSEDSAVYYCARMRYGDYYAMDNWGQGTSVTVSSAKTTAPPVYPLAPVCGDTTGSSVTLGCLVKGYFPESVTLLWNSGSLSSGVHTFPAVLQSDLYTLSSSVTVTSSTWPSQSITCNVAHPASSTKVDKKIEPRG,soluble
8,QVQLQQSGPEDVKPGASVKISCKASGYTFTDYYMNWVKQSPGKGLEWIGDINPNNGGTSYNQKFKGRATLTVDKSSSTAYMELRSLTSEDSSVYYCESQSGAYWGQGTTVTVSA,soluble
9,QVQLVQSGAEVRKPGASVKVSCKASGDTFSSYAISWVRQAPGQGLEWMGGIIPIFGTANYAQAFQGRVTITANESTSTAYMELSSLRSEDTAIYYCARDNPTLLGSDYWGAGTLVTVSSASTKGPSVFPLAPCSRSTSGGTAALGCLVKDYFPEPVTVSWNSGALTSGVHTFPAVLQSSGLYSLSSVVTVPSSSLGTQTYICNVNHKPSNTKVDKRV,soluble
10,RAATQVGATTMDRPEWVAVHPDKKHVFCTLTNNKNRGKEGQPVGGPNPREKNNYGQIVRWMPAQGDHTSDVFAWDLYLIAGNPTVHKGTLYAGSENISADNMFNSPDGIGFDTAGRLWIQTDGNYSNQGDFAGQGNNQMLCGDPITGEVKRFLTGPIACEITGLTFSPDHKTMFVG,not soluble
11,RAIPIKQSFLLKRSGNSLNKEWKKKYVTLSSNGFLLYHPSINDYIHSTHGKEMDLLRTTVKVPGKRPPRAISAFGPSASGSAGQAEEENFEFLIVSSTGQTWHFEAASFEERDAWVQAIESQILASLQ,soluble
12,RDTVVTLLLDNSGSMRGRPISIAAICADVLARTLERCNVKVEILGFTTRAWKGGLAREAWLNEGRPQQPGRLNDLRHIIYKAADAPMRRTRQNLGLMMKEGLLKENIDGEALEWAHRRMLGRREQRKILMVISDGAPVDDSTLSVNPANYLEKHLRDVIAMVERRKQVELLAIGIGHDVTRYYQRAVTITDVEQLAGAMTEQLAALFDSDPRARARVMGMKRAS,not soluble
13,RGVAVYVDHVDGDIHPVTYELIGKARELAAKINHPVYAVFIGQNIKDKAEELLHYGVDEVFVYDDAALKYFRIEPYTKAFEDFINKNKPSTILVGATTVGRSLAPRIAARFRTGLTADCTILDMKENTDLVQIRPAFGGNIMAQIINPNNRPQLATVRYKVMNAPVRSEEKKGKITLCSLKDITSNIEVLKVVKKQVEEN,not soluble
14,RHLVVPLNRLRDRADALRADELESTPLAAPLAARRDELGELAQALEHMAERLRLSLAQQRLLLRTLSHELRTPLARLRIAHDSELPPEQLRQRLDREIGDMQRLLEDTLDLAWMDTERPQLPTEPVLALSVWEALRDDACFESGWDPARLPCRLGVDCRVEVHLDSLAQAMENLLRNAIRHSPEDGTVSLDGEREGDFWHLRLQDQGPGVAEDQLERIFLPYQRLDDSAGEGFGLGLAIARRAIELQGGRLWASNGKPGLC,not soluble
15,RHRCIGLTVETKPDWFFEREIDEALAYGTTKVELGVQNIDDRILAINNRGHTVADIARSTQLARDAGLKIVYHIMPGMYGSSFEKDLKSFDLMINDERFKPDMLKIYPTLVTQGTGLYNLWKNGKYRPYTTAETVDLIVEFMRRMPDWIRIQRIQR,not soluble
16,RIEEVKERFVNLNRLFQELVGDFQAKSDQLVSVIQDMEKISENIMEELKKSGTNVDQIVERVKEASSQIGETLENIRSIEKLIQNIMRIARETNILALNATIEAARAGEAGKGFMIVANEVQNLSNETNEVTKQIVEKAREILESSQRSLENLEFMANLFETVGKTLQNMVRFMENIVKLLQEVRNSLDTSKESLSEKSAEIDSATKVLEETA,soluble
